Data taken from paper doi:10.1101/2022.02.25.482063.

Target: motavizumab
Assay: SPR

RSV F glycoprotein S275H, on virions of recombinant RSV-A2 mKate2 (natural protein)
fold reduction of the on-rate (ka) against WT: > 6 fold
